This is an account of results in IntAct's records for PubMed 22562154.

B1: Importin subunit beta-5 (Saccharomyces cerevisiae), P53067 (parent)
chain: MDINELIIGAQSADKHTREVAETQLLQWCDSDASQVFKALANVALQHEASLESRQFALLSLRKLITMYWSPGFESYRSTSNVEIDVKDFIREVLLKLCLNDNENTKIKNGASYCIVQISAVDFPDQWPQLLTVIYDAISHQHSLNAMSLLNEIYDDVVSEEMFFEGGIGLATMEIVFKVLNTETSTLIAKIAALKLLKACLLQMSSHNEYDEASRKSFVSQCLATSLQILGQLLTLNFGNVDVISQLKFKSIIYENLVFIKNDFSRKHFSSELQKQFKIMAIQDLENVTHINANVETTESEPLLETVHDCSIYIVEFLTSVCTLQFSVEEMNKIITSLTILCQLSSETREIWTSDFNTFVSKETGLAASYNVRDQANEFFTSLPNPQLSLIFKVVSNDIEHSTCNYSTLESLLYLLQCILLNDDEITGENIDQSLQILIKTLENILVSQEIPELILARAILTIPRVLDKFIDALPDIKPLTSAFLAKSLNLALKSDKELIKSATLIAFTYYCYFAELDSVLGPEVCSETQEKVIRIINQVSSDAEEDTNGALMEVLSQVISYNPKEPHSRKEILQAEFHLVFTISSEDPANVQVVVQSQECLEKLLDNINMDNYKNYIELCLPSFINVLDSNNANNYRYSPLLSLVLEFITVFLKKKPNDGFLPDEINQYLFEPLAKVLAFSTEDETLQLATEAFSYLIFNTDTRAMEPRLMDIMKVLERLLSLEVSDSAAMNVGPLVVAIFTRFSKEIQPLIGRILEAVVVRLIKTQNISTEQNLLSVLCFLTCNDPKQTVDFLSSFQIDNTDALTLVMRKWIEAFEVIRGEKRIKENIVALSNLFFLNDKRLQKVVVNGNLIPYEGDLIITRSMAKKMPDRYVQVPLYTKIIKLFVSELSFQSKQPNPEQLITSDIKQEVVNANKDDDNDDWEDVDDVLDYDKLKEYIDDDVDEEADDDSDDITGLMDVKESVVQLLVRFFKEVASKDVSGFHCIYETLSDSERKVLSEALL

Variants of B1 are the subject of this experiment. The conditions noted are these: with gsp1_yeast GSP1, P32835.
In the case of K909R, the “effect of a mutation on the interaction” value is recorded as “decreasing interaction”.
